Results on 2 molecules are retold here after patent US20140329706A1, “AFFINITY TAGS, AND RELATED AFFINITY LIGANDS, ENGINEERED PROTEINS, MODIFIED SUPPORTS, COMPOSITIONS, METHODS AND SYSTEMS” (CALIFORNIA INSTITUTE OF TECHNOLOGY, priority 2013, published 2014).

The target in this assay is T1, PSD-95 PDZ1-PDZ2 (Mus musculus, UniProt Q62108).
T1 construct: HaloTag-PDZ1+PDZ2 fusion protein (residues 61 to 249 of Mus musculus PSD-95); HaloTag (N); made in house
As to the kind of experiment: Binding of cypin to PSD-95 PDZ1-PDZ2 affinity resin. The text has this:
An affinity column was used substituted with a HaloTag-PDZ1+PDZ2 fusion protein (residues 61 to 249 of Mus musculus PSD-95) to purify heterologously expressed human cypin. Cypin was expressed in E. coli either as the free protein or fused to an N-terminal MBP, and purified from the bacterial supernate on the PDZ1-PDZ2 Domain-Affinity Resin. Both cypin and MBP-cypin were purified to >99% homogeneity.
For the experiment, full length cypin (guanine deaminase, Homo sapiens: AA 1-454) or MBP-cypin fusion proteins were expressed in BL21(DE3) E. coli cells. Single colonies of BL21(DE3) cells harboring pJExpress414 plasmids containing cypin or MBP-cypin genes were grown overnight at 37° C. in 5 ml of lysogeny broth (LB) (Cat. No. L9110, Teknova, Hollister, Calif.) supplemented with 100 ug/ml carbenicillin. […] Bacterial cell pellets (0.4-2.5 grams) containing cypin or MBP-cypin were resuspended in 5 ml/g cell paste of BugBuster Lysis Buffer [1× BugBuster (Cat. No. 70921, EMD Millipore, Billerica Mass.), 50 mM HEPES, 150 mM NaCl, 5 mM TCEP, 0.5 mM EDTA, 10 mM MgCl2, 2 mM PMSF, Complete Protease Inhibitor supplemented with 25 U/ml Benzonase and 10 U/ml ReadyLyse]. […] Eluted protein was analyzed on 4-12% bis-tris SDS-PAGE gels and proteins were detected by Gel Code Blue staining.

T1 sequence (Q62108 61-249): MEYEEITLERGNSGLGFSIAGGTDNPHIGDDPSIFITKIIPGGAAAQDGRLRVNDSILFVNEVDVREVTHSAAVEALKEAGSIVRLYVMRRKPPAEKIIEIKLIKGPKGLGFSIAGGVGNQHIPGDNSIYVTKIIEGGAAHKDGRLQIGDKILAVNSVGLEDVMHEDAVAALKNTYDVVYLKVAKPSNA

B1: untagged cypin: full length cypin (guanine deaminase, Homo sapiens: AA 1-454) (protein)
chain: MCAAQMPPLAHIFRGTFVHSTWTCPMEVLRDHLLGVSDSGKIVFLEEASQQEKLAKEWCFKPCEIRELSHHEFFMPGLVDTHIHASQYSFAGSSIDLPLLEWLTKYTFPAEHRFQNIDFAEEVYTRVVRRTLKNGTTTACYFATIHTDSSLLLADITDKFGQRAFVGKVCMDLNDTFPEYKETTEESIKETERFVSEMLQKNYSRVKPIVTPRFSLSCSETLMGELGNIAKTRDLHIQSHISENRDEVEAVKNLYPSYKNYTSVYDKNNLLTNKTVMAHGCYLSAEELNVFHERGASIAHCPNSNLSLSSGFLNVLEVLKHEVKIGLGTDVAGGYSYSMLDAIRRAVMVSNILLINKVNEKSLTLKEVFRLATLGGSQALGLDGEIGNFEVGKEFDAILINPKASDSPIDLFYGDFFGDISEAVIQKFLYLGDDRNIEEVYVGGKQVVPFSSSV
Consider B1, for which the “binding to solid support PDZ1 and PDZ2 domains” value is given as “able to bind with strong affinity”.

B2: MBP-cypin: cypin fused to an N-terminal maltose binding protein (protein)
chain: B1 chain
modifications: left off: large carriers
For B2, the “binding to solid support PDZ1 and PDZ2 domains” value is recorded as “able to bind with strong affinity”.
